Test results from publication PMC7445300.

Molecular target: GST-DNMT1-N (UniProt P26358)
Experiment: pull-down; GST-tagged proteins on Glutathione Sepharose beads incubated with acid-extracted core histones from HEK293T cells transfected with FLAG-H3 or FLAG-H2B and UHRF1 (S phase); 25 mM Tris-HCl pH 8.0, 150 mM NaCl, 1% NP-40, 2 mM EDTA, 1 mM DTT, 4 °C, 3 h; WB with anti-FLAG

fold enrichment of the ubiquitinated histone in the pull-down [fold]	Substance
4.9	ubiquitinated FLAG-H2B (from UniProt P0CG48 1-76)
20	ubiquitinated FLAG-H3 (from UniProt P0CG48 1-76)
